Assay results from PMC6949303.

B1: Ligelizumab IgG (antibody, V domains shown)
VH: QVQLVQSGAEVMKPGSSVKVSCKASGYTFSWYWLEWVRQAPGHGLEWMGEIDPGTFTTNYNEKFKARVTFTADTSTSTAYMELSSLRSEDTAVYYCARFSHFSGSNYDYFDYWGQGTLVTVSS
VL: EIVMTQSPATLSVSPGERATLSCRASQSIGTNIHWYQQKPGQAPRLLIYYASESISGIPARFSGSGSGTEFTLTISSLQSEDFAVYYCQQSWSWPTTFGGGTKVEIK
B2: Ligelizumab F(ab′)2 (protein)
VH: QVQLVQSGAEVMKPGSSVKVSCKASGYTFSWYWLEWVRQAPGHGLEWMGEIDPGTFTTNYNEKFKARVTFTADTSTSTAYMELSSLRSEDTAVYYCARFSHFSGSNYDYFDYWGQGTLVTVSS
VL: EIVMTQSPATLSVSPGERATLSCRASQSIGTNIHWYQQKPGQAPRLLIYYASESISGIPARFSGSGSGTEFTLTISSLQSEDFAVYYCQQSWSWPTTFGGGTKVEIK
B3: Ligelizumab Fab (Fab, V domains shown)
VH: QVQLVQSGAEVMKPGSSVKVSCKASGYTFSWYWLEWVRQAPGHGLEWMGEIDPGTFTTNYNEKFKARVTFTADTSTSTAYMELSSLRSEDTAVYYCARFSHFSGSNYDYFDYWGQGTLVTVSS
VL: EIVMTQSPATLSVSPGERATLSCRASQSIGTNIHWYQQKPGQAPRLLIYYASESISGIPARFSGSGSGTEFTLTISSLQSEDFAVYYCQQSWSWPTTFGGGTKVEIK

How the values were obtained:
[1] = biological target: Biotinylated JW8-IgE (human); experiment: ELISA; FcεRIα immobilised at 30 nM; biotinylated JW8-IgE titrated (60–0.001 nM) or 0.78 nM pre-incubated 30 min with anti-IgE antibodies (0.0078–600 nM); streptavidin-HRP
[2] = biological target: Human monoclonal Sus11-IgE (human); experiment: SPR; Biacore X100, CM5 chip, HBS-EP+, 10 μl/min; anti-IgE Le27 immobilised (3000 RU), 30 nM Sus11-IgE captured (~100 RU); 1.56–25 nM antibodies/fragments injected 120 s, dissociation 240 s; 1:1 langmuir fit

Binder	fold higher potency than omalizumab in inhibiting IgE binding to FcεRIα [1]	Kd [2]	koff [2]	kon [2]
B1	20 fold	17.8 pM	3.3e-05 s⁻¹	1.8e+06 M⁻¹ s⁻¹
B2	–	12.1 pM	5.1e-05 s⁻¹	4.2e+06 M⁻¹ s⁻¹
B3	–	35 pM	0.00032 s⁻¹	9.2e+06 M⁻¹ s⁻¹
